Patent US20050196403A1

Experiments:
[1] = target: HLA-A*0201 (Human); test: competition vs 125I standard peptide, purified HLA
[2] = target: HLA-A*2401 (human); test: competition with 125I probe peptide, purified HLA class I
[3] = target: HLA-A*0301 (Human)
[4] = target: HLA-A*2401 (Human)
[5] = target: HLA-A*0201 (Human); test: competition vs 125I probe, purified HLA
[6] = target: HLA-A*0206 (Human); test: competition vs 125I probe, purified HLA
[7] = target: HLA-A*0203 (Human); test: competition vs 125I probe, purified HLA
[8] = target: HLA-A*0202 (Human); test: competition vs 125I probe, purified HLA

Substance: EALELKDA (peptide)
- binding affinity ratio (ratio to standard peptide) [1]: -0.0002

Substance: ELNEALEL (peptide)
- binding affinity ratio (ratio to standard peptide) [1]: -0.0002

Substance: PLDGEYFT (peptide)
- binding affinity ratio (ratio to standard peptide) [1]: -0.0002

Substance: RFEMFREL (p53 position 337) (peptide)
- binding affinity ratio (standard IC50 / test IC50) [2]: -0.0004

Substance: TFSDLWKL (p53 position 18) (peptide)
- binding affinity ratio (standard IC50 / test IC50) [2]: 0.0016

Substance: p53 peptide HMTEVVRR (position 168)
- binding affinity ratio (IC50 of standard peptide/IC50 of test peptide) [3]: 0.0046

Substance: p53 peptide RFEMFREL (position 337, 8 amino acids)
- binding affinity ratio (IC50 of standard peptide/IC50 of test peptide) [4]: -0.0004

Substance: p53 peptide SYGFRLGF (position 106, 8 amino acids)
- binding affinity ratio (IC50 of standard peptide/IC50 of test peptide) [4]: 0.028

Substance: p53 peptide TFSDLWKL (position 18, 8 amino acids)
- binding affinity ratio (IC50 of standard peptide/IC50 of test peptide) [4]: 0.0016

Substance: p53 peptide TYQGSYGF (position 102, 8 amino acids)
- binding affinity ratio (IC50 of standard peptide/IC50 of test peptide) [4]: 0.11

Substance: p53 peptide … (position 102, 10 amino acids)
- binding affinity ratio (IC50 of standard peptide/IC50 of test peptide) [4]: 0.12

Substance: p53 peptide … (position 106, 9 amino acids)
- binding affinity ratio (IC50 of standard peptide/IC50 of test peptide) [4]: 0.02

Substance: p53 peptide … (position 117, 10 amino acids)
- binding affinity ratio (IC50 of standard peptide/IC50 of test peptide) [4]: 0.0001

Substance: p53 peptide … (position 125, 10 amino acids)
- binding affinity ratio (IC50 of standard peptide/IC50 of test peptide) [4]: 5.1

Substance: p53.69 AAPPVAPA (peptide)
- IC50 [5]: 5000 nM

Substance: p53.129B7V9 ALNKMFBQV (peptide)
- IC50 [6]: 49 nM
- IC50 [7]: 23 nM

Substance: p53.135B1B7 BQLAKTBPV (peptide)
- IC50 [8]: 71 nM
- IC50 [6]: 67 nM
- IC50 [7]: 15 nM

Substance: p53.135B1L2B7 BLLAKTBPV (peptide)
- IC50 [6]: 64 nM
- IC50 [7]: 7.7 nM
- IC50 [5]: 46 nM
